Substrate in series [1]: O=c1c(O)c(-c2ccc(O)c(O)c2)oc2cc(O)cc(O)c12
Put plainly: UPLC-MS/MS glucosyltransferase kinetics. The class given is biochemical, Aesculus chinensis. As to conditions: UDP-glucose 2 mM, pH 7.0 Tris-HCl, 10 mM DTT, 37 °C.

Substrate in series [2]: O=c1c(O)c(-c2ccc(O)cc2)oc2cc(O)cc(O)c12
In words: UPLC-MS/MS glucosyltransferase kinetics. It is filed as biochemical, Aesculus chinensis. As to conditions: UDP-glucose 2 mM, pH 7.0 Tris-HCl, 10 mM DTT, 37 °C.

B1: AcUGT1 (Aesculus chinensis) (protein)
chain: MQKAELVFIPLPGVSHLISTVEIAKLLVGRDDRLSITVLIIKFPNFDSNVIAAYTRSLDRIKFIDLPNHFSDSDNSRTLFFSIIESQKPHVKEAVTKLTQSESLPAADSPRLAGFVLDMFCTCMIDVANDFGVPSYIFFTSGAAFLGLMFHAQFLHDELGKSTTDFKDSESDAELVVPSLANPVPARVLPSAMLSKEWSMHLNELSRRFRTTKGIMVNTFAELESYAVNSLSDGSKTQIPPLYPVGPILNLNGDNHVPERKAEIMEWLDDQPPSSVVFLCFGSMGSFDGDQLKEIACALEQSGHRFLWSVRQSPPKDKDKDKIVIPNDCENLTDVLPEGFLDRTVGIGKVIGWAPQVAVLGHPAVGGFVSHCGWNSTLESIWFGVPIATWPIYAEQQLNAFEMVRELGLAVEIKMDYRKDFITESVVELVTAEEIERGIRRLMESDNNDIRKKVKEMSEKSRRALMDGGSSFSSLGRFIGDVIDNIS
notes: cloned from mixed leaf, flower and seed cDNA into pMAL-c2x (MBP-fusion vector), expressed in Escherichia coli
In general, Km refers to the concentration of substrate that gives half-maximal velocity. In the case of B1, in series [1], the Km worked out at 1.02 ± 0.23 µM and the kcat was 5.34±0.01(10^-3) S^-1. Further, the Km in series [2] was 22.62 µM.

B2: AcUGT26 (Aesculus chinensis) (protein)
chain: MSSSRSQSHHVILFPFMSKGHTIPLLHLAQLLLRRPRVAVTVFTTPANRPFTSNFLRNTAASIIDLPFPENVPEIAPGIESTDKLPSMSLFVPFARATKLMQPDFERAVEAMPRVSFLVSDGFLWWTLESATKFGFPRFVFYGMNNYSGCVCRAVVENRLLYGRKSDDELVTVTGFPWIKVTRNDFEPTFTDPEPKGPMFDLVIDQVIATSNSYGLIVNSFYELESLFVEHKNREAKPKVWCVGPLCLADPLRVQDQLPPHQKPTWIQWLDQKLEQGRSVLYVAFGTQAEISEEQVKEISSGLEESKVNFLWVIRKKESELGDGFEKRVKERGLIVREWVDQREMLLHQSIHGFLSHCGWNSVMESICAGVPILAWPMMAEQPLNARMVVEEIKVGLRVETCNGSVRGFVKKEGLEKMVKELMEGEKGKEVRKKAKEYAEMARKAMDEDNGSSCRTLDMLMAEISNSKSQDKMEV
notes: as for B1
Consider B2, for which, in series [1], the Michaelis constant (Km) was 2.23 ± 0.06 µM and the kcat is listed as 0.65±0.02(10^-3) S^-1.

For the origin of these results see paper PMC8850972, “Unraveling the Glucosylation of Astringency Compounds of Horse Chestnut via Integrative Sensory Evaluation, Flavonoid Metabolism, Differential Transcriptome, and Phylogenetic Analysis” (Frontiers in Plant Science, 2022).
